B1: GST-fused P5 (GLYYF) [human] / Flag-fused N-terminal-truncated AdipoR1 (residues 89-375) [human] (parent complex)
chain 1: GLYYF
chain 2: EGRWRVIPYDVLPDWLKDNDYLLHGHRPPMPSFRACFKSIFRIHTETGNIWTHLLGFVLFLFLGILTMLRPNMYFMAPLQEKVVFGMFFLGAVLCLSFSWLFHTVYCHSEKVSRTFSKLDYSGIALLIMGSFVPWLYYSFYCSPQPRLIYLSIVCVLGISAIIVAQWDRFATPKHRQTRAGVFLGLGLSGVVPTMHFTIAEGFVKATTVGQMGWFFLMAVMYITGAGLYAARIPERFFPGKFDIWFQSHQIFHVLVVAAAFVHFYGVSNLQEFRYGLEGGCTDDTLL
B2: Flag-fused N-terminal-truncated AdipoR1 (residues 89-375) [human] / GST-fused P5 (GLYYF) [human] (parent complex)
chain 1: B1 chain 2
chain 2: GLYYF

Variants of: B1
Assay: GST pulldown; n = 3 technical replicates/group; parent: 1; read off a plot
chain 1 Y4A was tested, and the ratio to parent was roughly 0.12. Work on chain 1 Y4D yielded a ratio to parent of roughly 0.13.

Variants of: B2
Assay: as above
chain 1 R274A was tested, and the ratio to parent was roughly 0.83. For chain 1 F273A, the ratio to parent was roughly 0.73. With chain 1 F197A the ratio to parent was roughly 0.57. Variant chain 1 F197E has a ratio to parent of roughly 0.3.

Variants of: B2
Assay: as above
Remark: another data set of the same source
chain 1 Y141A showed a ratio to parent of roughly 1. For chain 1 Y137A, the ratio to parent was roughly 0.77. For chain 1 Y138A, the ratio to parent was roughly 0.65.

Variants of: B2
Assay: as above
Remark: another data set of the same source
In the case of chain 1 F197E, chain 1 F273A, the ratio to parent is reported as roughly 0.72. For chain 1 F197A, chain 1 R274A, the ratio to parent was roughly 0.75. In the case of chain 1 F197E, chain 1 E201A, the ratio to parent is reported as roughly 0.45.

Reference: PMC8495455, “Discovery of a transdermally deliverable pentapeptide for activating AdipoR1 to promote hair growth” (EMBO Molecular Medicine, 2021)
